Test results taken from patent US20230183352A1 (published 2023).

Experiments:
[1] = biological target: T1, Claudin 18.2 (CLDN18.2), expressed on CHOS-CLDN 18.2 / HEK293-CLDN 18.2 / HCC827-CLDN 18.2 cells (human, UniProt P56856-2 1-261); assay: FACS, MFI on CHOS-CLDN18.2 over MFI on CHOS-CLDN18.1, 10 µg/ml
T1 construct: whole, on cells; The species is not repeated for the CHOS-CLDN 18.2 cells; also called claudin-18A2
Method: The initial concentration of the antibody was 20 μg/mkit was diluted at 1:4, and incubated at 4° C. for 60 min.

[2] = biological target: T1, Claudin 18.2 (CLDN18.2), expressed on …; assay: FACS, CHOS-CLDN18.2 cells, 5 µg/ml
Method: (§1) The initial concentration of the antibody was 20 μg/ml, it was diluted at 1:4, and incubated at 4° C. for 60 min.

[3] = biological target: T1, Claudin 18.2 (CLDN18.2), expressed on …; assay: FACS, CHOS-CLDN18.2 cells, 5 µg/ml; remark: listed apart in the source
Method: as §1

[4] = biological target: T1, Claudin 18.2 (CLDN18.2), expressed on …; assay: FACS, CHOS-CLDN18.2 cells, 0.313 µg/ml
Method: as §1

[5] = biological target: T1, Claudin 18.2 (CLDN18.2), expressed on …; assay: FACS, CHOS-CLDN18.2 cells, 0.078 µg/ml
Method: as §1

[6] = biological target: T1, Claudin 18.2 (CLDN18.2), expressed on …; assay: FACS, CHOS-CLDN18.2 cells, 5 µg/ml; remark: listed apart in the source
Method: as §1

[7] = biological target: T1, Claudin 18.2 (CLDN18.2), expressed on …; assay: FACS, CHOS-CLDN18.2 cells, 5 µg/ml; remark: listed apart in the source
Method: as §1

[8] = biological target: T1, Claudin 18.2 (CLDN18.2), expressed on …; assay: FACS, CHOS-CLDN18.2 cells, 0 µg/ml (background)
Method: as §1

[9] = biological target: T1, Claudin 18.2 (CLDN18.2), expressed on …; assay: FACS, CHOS-CLDN18.2 cells, 1.250 µg/ml
Method: as §1

[10] = biological target: T1, Claudin 18.2 (CLDN18.2), expressed on …; assay: FACS, CHOS-CLDN18.2 cells, 5 µg/ml; remark: listed apart in the source
Method: as §1

[11] = biological target: T1, Claudin 18.2 (CLDN18.2), expressed on …; assay: FACS, CHOS-CLDN18.2 cells, 0.005 µg/ml
Method: as §1

[12] = biological target: T1, Claudin 18.2 (CLDN18.2), expressed on …; assay: FACS, CHOS-CLDN18.2 cells, 0.005 µg/ml; remark: listed apart in the source
Method: as §1

[13] = biological target: T1, Claudin 18.2 (CLDN18.2), expressed on …; assay: FACS, CHOS-CLDN18.2 cells, 20 µg/ml
Method: as §1

[14] = biological target: T1, Claudin 18.2 (CLDN18.2), expressed on …; assay: FACS, CHOS-CLDN18.2 cells, 20 µg/ml; remark: listed apart in the source
Method: as §1

[15] = biological target: T1, Claudin 18.2 (CLDN18.2), expressed on …; assay: FACS, CHOS-CLDN18.2 cells, 0.313 µg/ml; remark: listed apart in the source
Method: as §1

[16] = biological target: T1, Claudin 18.2 (CLDN18.2), expressed on …; assay: FACS, CHOS-CLDN18.2 cells, 0 µg/ml (background); remark: listed apart in the source
Method: as §1

[17] = biological target: T1, Claudin 18.2 (CLDN18.2), expressed on …; assay: FACS, CHOS-CLDN18.2 cells, 0.020 µg/ml
Method: as §1

[18] = biological target: T1, Claudin 18.2 (CLDN18.2), expressed on …; assay: FACS, CHOS-CLDN18.2 cells, 1.250 µg/ml; remark: listed apart in the source
Method: as §1

B1: QP024025 (antibody, human IgG1, V domains shown)
VH: QVQLQQPGAELVRPGASVKLSCKASGYTFTSYWINWVKQRPGQGLEWIGNIYPSDSYTNYNQKFKDKATLTVDKSSSTAYMQLSSPTSEDSAVYYCTRSWRGNSFDYWGQGTTLTVSS
VL: DIVMTQSPSSLTVTAGEKVTMSCKSSQSLLNSGNQKNYLTWYQQKPGQPPKLLIYWASTRESGVPDRFTGSGSGTDFTLTISSVQAEDLAVYYCQNDYSYPFTFGSGTKLEIK
notes: also called IMAB362; 175D10(IMAB362)
Question: Which results are given for B1?
Answer: CLDN18.2/CLDN18.1 (MFI ratio) [1]: 104; FACS reading [2]: 105000; FACS reading [3]: 105000; FACS reading [4]: 51000; FACS reading [5]: 18200; FACS reading [6]: 105000; FACS reading [7]: 105000; FACS reading [8]: 732; FACS reading [9]: 63700; FACS reading [10]: 105000; FACS reading [11]: 2830; FACS reading [12]: 2830; FACS reading [13]: 72300; FACS reading [14]: 72300; FACS reading [15]: 51000; FACS reading [16]: 732; FACS reading [17]: 6950; FACS reading [18]: 63700
